Earlier results as cited in paper PMC3471675.
Like-named read-outs stand apart in the source and are kept apart here. Blank lines part the entries; values can stand above or below the substance they belong to.

Assays:
IL-2Rβ (Homo sapiens) [1] = biological target: IL-2Rβ (Homo sapiens) (UniProt P14784)
IL-2Rβ (Homo sapiens) [2] = biological target: IL-2Rβ (Homo sapiens) (UniProt P14784); remark: listed apart in the source
IL-4Rα (Homo sapiens) = IL-4Rα (Homo sapiens) (UniProt P24394)
IL-7Rα (Homo sapiens) [3] = biological target: IL-7Rα (Homo sapiens) (UniProt P16871)
IL-7Rα (Homo sapiens) [4] = biological target: IL-7Rα (Homo sapiens) (UniProt P16871); remark: listed apart in the source
γc (Homo sapiens) = γc (Homo sapiens) (UniProt P31785)
UniProt P31785, sequence (P31785 23-262): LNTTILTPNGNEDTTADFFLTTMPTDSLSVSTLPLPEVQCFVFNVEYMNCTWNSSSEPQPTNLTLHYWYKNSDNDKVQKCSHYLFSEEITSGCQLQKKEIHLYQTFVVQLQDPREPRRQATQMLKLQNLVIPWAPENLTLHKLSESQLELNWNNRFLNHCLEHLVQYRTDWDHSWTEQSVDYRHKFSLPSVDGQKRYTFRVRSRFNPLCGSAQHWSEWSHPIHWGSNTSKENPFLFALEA

IL-21Rα (Homo sapiens) = IL-21Rα (Homo sapiens) (UniProt Q9HBE5)
UniProt Q9HBE5, sequence (Q9HBE5 20-232): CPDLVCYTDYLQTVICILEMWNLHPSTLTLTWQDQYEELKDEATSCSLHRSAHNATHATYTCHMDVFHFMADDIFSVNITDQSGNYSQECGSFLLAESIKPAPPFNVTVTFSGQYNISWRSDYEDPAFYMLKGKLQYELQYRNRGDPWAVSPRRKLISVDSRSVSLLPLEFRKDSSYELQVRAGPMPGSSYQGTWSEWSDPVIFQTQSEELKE

UniProt P24394, sequence (P24394 26-232): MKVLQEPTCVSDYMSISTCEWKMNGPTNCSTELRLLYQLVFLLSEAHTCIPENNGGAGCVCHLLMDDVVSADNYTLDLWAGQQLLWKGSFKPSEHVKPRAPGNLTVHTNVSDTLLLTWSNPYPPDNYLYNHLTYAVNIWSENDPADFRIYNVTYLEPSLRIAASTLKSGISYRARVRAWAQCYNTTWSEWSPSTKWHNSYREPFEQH

Substance: IL-7 (from UniProt P13232)
Kd (IL-7Rα (Homo sapiens) [3]): 59 nM

Substance: IL-7Rα (from UniProt P16871)
Kd (IL-7Rα (Homo sapiens) [4]): 610000 nM
Kd (γc (Homo sapiens)): 3000 nM

Substance: IL-21 (from UniProt Q9HBE4)
Kd (IL-21Rα (Homo sapiens)): 0.07 nM

Next, values leading:

Kd (IL-2Rβ (Homo sapiens) [1]): 530 nM
Substance: IL-2 (from UniProt P60568)

Kd (IL-2Rβ (Homo sapiens) [2]): 3000 nM
Substance: IL-2Rβ (from UniProt P14784)

Kd (IL-4Rα (Homo sapiens)): 0.15 nM
Substance: IL-4 (from UniProt P05112)
